Measurements as given in publication PMC5039624 (Scientific Reports, 2016).
Bridge positions count the residues as written; N and C are the ends. Peptide text beside a SMILES is read from it.

Key:
[1] = Liposome centrifugation assay, POPC liposomes; assay type: physicochemical; conditions: LUVs, 10 mM HEPES pH 7.4, 150 mM NaCl; 10 μM toxin, 1 h room temperature, 30 min at 100,000 g; supernatant by RP-HPLC; close to 0
Experimental: (§1) To investigate whether the micelle-binding interface identified by NMR-CSM faithfully reports on the lipid-binding interface of the peptide we used a previously reported liposome centrifugation assay[30] to study the interaction between VSTx1 and phospholipids with different head groups. VSTx1 was incubated with liposomes of different composition, then the liposomes were pelleted using ultracentrifugation and the amount of unbound VSTx1 in the supernatant was determined using reverse-phase (RP) HPLC (Fig. 4a,b). Partition coefficients (Kp) for binding of VSTx1 to liposomes were calculated by fitting to the partition equilibrium equation (see Eqn (3) in Materials and Methods). […]
(§2) Large unilamellar vesicles (LUVs) were prepared by drying lipids (POPG and/or POPC, 25 mg/mL) under nitrogen gas, drying the lipid pellet under vacuum, and resuspending the lipids by vortexing for 1 h in an aqueous buffer containing 10 mM HEPES pH 7.4, and 150 mM NaCl. […] Aqueous solutions of the toxin (10 μM) were incubated with varying amounts of vesicles for 1 h at room temperature, then the vesicles were centrifuged for 30 min at 100,000 g before the toxin concentration in the aqueous phase was determined. Aqueous concentrations of VSTx1 were quantified by RP-HPLC using a monolithic C18 column (4.6 × 100 mm). […]

[2] = Liposome centrifugation assay, liposomes with POPG content reduced by 25%; assay type: physicochemical; conditions: 10 mM HEPES pH 7.4, 150 mM NaCl, 10 μM toxin, 1 h room temperature, 30 min at 100,000 g, supernatant by RP-HPLC
Experimental: as §1, §2

[3] = Liposome centrifugation assay, POPE liposomes; assay type: physicochemical; conditions: 10 μM toxin, 1 h room temperature, 30 min at 100,000 g, supernatant by RP-HPLC, close to 0
Experimental: as §1, §2

[4] = Liposome centrifugation assay, POPG liposomes; assay type: physicochemical; conditions: LUVs extruded through 0.1 μm filters, 10 mM HEPES pH 7.4, 150 mM NaCl; 10 μM toxin, 1 h room temperature, 30 min at 100,000 g; unbound toxin in supernatant by RP-HPLC; fit to partition equilibrium equation
Experimental: To investigate whether the micelle-binding interface identified by NMR-CSM faithfully reports on the lipid-binding interface of the peptide we used a previously reported liposome centrifugation assay[30] to study the interaction between VSTx1 and phospholipids with different head groups. VSTx1 was incubated with liposomes of different composition, then the liposomes were pelleted using ultracentrifugation and the amount of unbound VSTx1 in the supernatant was determined using reverse-phase (RP) HPLC (Fig. 4a,b). Partition coefficients (Kp) for binding of VSTx1 to liposomes were calculated by fitting to the partition equilibrium equation (see Eqn (3) in Materials and Methods). The Kp for binding to 1-palmitoyl-2-oleoyl-sn-glycero-3-phosphoglycerol (POPG) liposomes was 2.4 × 10^5 while the Kp values for binding to POPC or 1-palmitoyl-2-oleoyl-sn-glycero-3-phosphoethanolamine (POPE) liposomes were close to 0 (both <10^2) (Fig. 4e).
Large unilamellar vesicles (LUVs) were prepared by drying lipids (POPG and/or POPC, 25 mg/mL) under nitrogen gas, drying the lipid pellet under vacuum, and resuspending the lipids by vortexing for 1 h in an aqueous buffer containing 10 mM HEPES pH 7.4, and 150 mM NaCl. Vesicles were extruded 20 times using 0.1 μm polycarbonate filters (Avanti Polar Lipids, Inc.). Aqueous solutions of the toxin (10 μM) were incubated with varying amounts of vesicles for 1 h at room temperature, then the vesicles were centrifuged for 30 min at 100,000 g before the toxin concentration in the aqueous phase was determined. Aqueous concentrations of VSTx1 were quantified by RP-HPLC using a monolithic C18 column (4.6 × 100 mm). The toxin was eluted with a linear gradient of 10–50% solvent B (0.046% TFA in acetonitrile) in solvent A (0.05% TFA in water) over 10 min at a flow rate of 3 ml/min. The partition coefficients (Kp) for the binding of VSTx1 to liposomes were calculated by fitting to the partition equilibrium equation: […]

VSDK Q49A = biological target: T1, VSDK Q49A (UniProt Q9YDF8 19-160, Q49A); test: pull-down; conditions: both partners purified
T1 sequence: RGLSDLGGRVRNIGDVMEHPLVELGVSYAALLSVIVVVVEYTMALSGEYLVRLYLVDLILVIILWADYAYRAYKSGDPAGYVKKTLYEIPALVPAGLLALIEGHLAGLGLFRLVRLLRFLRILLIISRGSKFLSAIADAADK

VSDK R120A = biological target: T2, VSDK R120A (UniProt Q9YDF8 19-160, R120A); test: pull-down; conditions: both partners purified
T2 sequence: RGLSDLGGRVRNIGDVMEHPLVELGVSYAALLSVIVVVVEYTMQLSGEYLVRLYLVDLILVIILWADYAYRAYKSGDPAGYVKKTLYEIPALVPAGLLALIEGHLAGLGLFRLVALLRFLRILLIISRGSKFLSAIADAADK

VSDK S51A = biological target: T3, VSDK S51A (UniProt Q9YDF8 19-160, S51A); test: pull-down; conditions: both partners purified
T3 sequence: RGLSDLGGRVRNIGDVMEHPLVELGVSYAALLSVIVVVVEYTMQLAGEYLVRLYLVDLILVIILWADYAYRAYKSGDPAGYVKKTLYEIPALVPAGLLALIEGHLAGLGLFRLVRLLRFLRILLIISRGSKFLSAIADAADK

VSDK T47A = biological target: T4, VSDK T47A (UniProt Q9YDF8 19-160, T47A); test: pull-down; conditions: both partners purified
T4 sequence: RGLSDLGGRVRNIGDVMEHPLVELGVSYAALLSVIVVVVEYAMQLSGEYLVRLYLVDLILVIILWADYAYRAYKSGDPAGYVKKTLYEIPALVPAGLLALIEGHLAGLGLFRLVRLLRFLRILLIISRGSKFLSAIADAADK

VSDK E45A = biological target: T5, VSDK E45A (UniProt Q9YDF8 19-160, E45A); test: pull-down; conditions: both partners purified
T5 sequence: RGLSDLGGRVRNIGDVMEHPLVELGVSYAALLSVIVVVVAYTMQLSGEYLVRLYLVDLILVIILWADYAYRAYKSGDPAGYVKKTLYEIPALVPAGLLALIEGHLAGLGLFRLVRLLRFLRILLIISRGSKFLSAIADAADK

VSDK E107A = biological target: T6, VSDK E107A (UniProt Q9YDF8 19-160, E107A); test: pull-down; conditions: both partners purified
T6 sequence: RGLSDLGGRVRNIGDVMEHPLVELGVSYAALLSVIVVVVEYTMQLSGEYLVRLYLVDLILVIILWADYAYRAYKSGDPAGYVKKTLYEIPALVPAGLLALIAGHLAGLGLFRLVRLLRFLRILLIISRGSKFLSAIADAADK

VSDK Y46A = biological target: T7, VSDK Y46A (UniProt Q9YDF8 19-160, Y46A); test: pull-down; conditions: both partners purified
T7 sequence: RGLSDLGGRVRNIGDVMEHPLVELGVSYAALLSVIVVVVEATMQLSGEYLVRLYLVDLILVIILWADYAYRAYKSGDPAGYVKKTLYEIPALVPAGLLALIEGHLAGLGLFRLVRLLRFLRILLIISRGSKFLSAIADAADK

[5] = biological target: T8, isolated voltage-sensor domain of the voltage-gated potassium channel KvAP (VSDK), wild type (UniProt Q9YDF8 19-160); test: NMR titration; conditions: both partners purified
T8 construct: also called WT VSDK; KvAP voltage sensor
T8 sequence: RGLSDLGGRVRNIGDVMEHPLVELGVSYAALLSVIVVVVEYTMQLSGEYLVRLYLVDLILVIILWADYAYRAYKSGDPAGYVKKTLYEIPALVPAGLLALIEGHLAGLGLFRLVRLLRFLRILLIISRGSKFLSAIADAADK

## CSCC[C@@H]1NC(=O)[C@H](Cc2ccccc2)NC(=O)[C@H](CCCCN)NC(=O)CNC(=O)[C@@H](NC(=O)[C@H](CCC(=O)O)NC(=O)[C@@H](N)CO)CSSC[C@@H]2NC(=O)[C@@H]3CSSC[C@@H](C(=O)N[C@H](C(=O)N[C@@H](CC(C)C)C(=O)N[C@@H](C)C(=O)N[C@@H](CO)C(=O)N4CCC[C@H]4C(=O)N[C@@H](Cc4ccccc4)C(=O)O)C(C)C)NC(=O)[C@H](Cc4c[nH]c5ccccc45)NC(=O)[C@H](CCCCN)NC(=O)[C@H](Cc4c[nH]c5ccccc45)NC(=O)[C@H](CCCNC(=N)N)NC(=O)[C@H](CO)NC(=O)[C@H](CO)NC(=O)[C@H](CSSC[C@H](NC(=O)[C@H](CCCCN)NC(=O)[C@H](Cc4c[nH]c5ccccc45)NC1=O)C(=O)N[C@@H](CCCCN)C(=O)N[C@@H](CC(N)=O)C(=O)N[C@@H](CO)C(=O)N[C@@H](CC(N)=O)C(=O)N[C@@H](CC(=O)O)C(=O)N3)NC(=O)[C@H](C(C)C)NC(=O)[C@H](CC(C)C)NC(=O)[C@H](CC(=O)O)NC(=O)[C@H](CCCCN)NC2=O [VSTx1] (H-SECGKFMWKCKNSNDCCKDLVCSSRWKWCVLASPF-OH; disulfide 3-17, 10-22, 16-29)
[1]
  Partition coefficient (Kp) for binding to POPC liposomes: < 10^2
[2]
  Partition coefficient (Kp), POPG content of liposomes reduced by 25%: 0.18 × 10^5
[3]
  Partition coefficient (Kp) for binding to POPE liposomes: < 10^2
[4]
  Partition coefficient (Kp) for binding to POPG liposomes: 2.4 × 10^5

B1: VSTx1 (recombinant, wild type) (peptide)
chain: SECGKFMWKCKNSNDCCKDLVCSSRWKWCVLASPF
notes: also called WT VSTx1; spider-venom peptide VSTx1; not shown: His6, N-terminal, cleaved; MBP, N-terminal, cleaved
VSDK Q49A
  percent decrease in binding against wild-type VSDK: 58%
VSDK R120A
  binding result: binds
VSDK S51A
  binding result: binds
VSDK T47A
  binding result: binds
VSDK E45A
  percent decrease in binding against wild-type VSDK: 65%
VSDK E107A
  percent decrease in binding against wild-type VSDK: 59%
VSDK Y46A
  binding result: binds
[5]
  Kd: 140 µM
